Test results published in US5726018.

What was measured:
[1] = biological target: pp32, dephosphorylated (murine) (UniProt O35381)
[2] = biological target: pp32 (32 kDa murine nuclear phosphoprotein from A20 cells) (murine) (UniProt O35381)
[3] = biological target: pp35, dephosphorylated (murine)
[4] = biological target: pp35 (35 kDa murine nuclear phosphoprotein purified from A20 cells) (murine)

32P incorporation (stoichiometry of phosphorylation) [1] [mol/mol]	32P incorporation (stoichiometry of phosphorylation) [2] [mol/mol]	32P incorporation (stoichiometry of phosphorylation) [3] [mol/mol]	32P incorporation (stoichiometry of phosphorylation) [4] [mol/mol]	Substance
0.08	< 0.01	0.76	0.05	casein kinase II from bovine thymus (enzyme)
< 0.01	< 0.01	< 0.01	< 0.01	protein kinase C from rat brain (80 kDa isoenzyme)
< 0.01	–	–	–	A 431 cell epidermal growth factor receptor kinase (from UniProt P00533) (enzyme)
